Experimental findings from patent US20220025056A1 (INNATE PHARMA, published 2022) are described below.

In assay [1] the target is T1, human ILT1 (LILRA2) on CHO cells (human, UniProt Q8N149 24-475).
T1 construct: also called CHO ILT1 cell line
As to the kind of experiment: flow cytometry, CHO transfectants.

Assay [2] concerns the target T2, human ILT3 (LILRB4) on CHO cells (human, UniProt Q8NHJ6 24-443).
T2 construct: also called CHO ILT3 cell line
As to the kind of experiment: flow cytometry, CHO transfectants.

The target of assay [3] is T3, human ILT4 (LILRB2) on CHO cells (human, UniProt Q8N423 23-597).
T3 construct: also called CHO ILT4 cell line
As to the kind of experiment: flow cytometry, CHO transfectants.

Assay [4] concerns the target T4, human ILT5 (LILRB3) on CHO cells (human, UniProt O75022 24-626).
T4 construct: also called CHO ILT5 cell line
As to the kind of experiment: flow cytometry, CHO transfectants.

Assay [5] deals with T5, human ILT6 (LILRA3) on CHO cells (human, UniProt Q8N6C8 24-434).
T5 construct: also called CHO ILT6 cell line; human ILT-6 polypeptide
As to the kind of experiment: flow cytometry, CHO transfectants.

Assay [6] has as its target T6, human ILT7 (LILRA4) on CHO cells (human, UniProt P59901 28-494).
T6 construct: also called CHO ILT7 cell line
As to the kind of experiment: flow cytometry, CHO transfectants.

Assay [7] addresses T7, human ILT8 (LILRA6) on CHO cells (human, UniProt Q6PI73 24-477).
T7 construct: also called CHO ILT8 cell line
As to the kind of experiment: flow cytometry, CHO transfectants.

The target in assay [8] is T8, human ILT2 (LILRB1) expressed at the surface of transfected cells (human, UniProt Q8NHL6 24-650).
T8 construct: also called CHO-ILT2; CHO ILT2 cell line
As to the kind of experiment: flow cytometry, CHO-ILT2 cells. The procedure:
Cells were incubated with various concentrations of unlabeled anti-ILT2 antibodies from 30 μg/ml to 5×10-⁴ μg/ml, for 30 minutes at 4° C. After washes with staining buffer, cells were incubated for 30 min at 4° C. with Goat anti-human H+L AF488 secondary antibody (Jackson Immunoresearch #109-546-088) or Goat anti-mouse H+L AF488 secondary antibody for commercially available antibodies (Jackson Immuoresearch #115-545-146). Fluorescence was measured on an Accury C6 flow cytometer equipped with an HTFC plate loader.

The target of assay [9] is T9, human ILT2 on primary NK cells (human, UniProt Q8NHL6 24-650).
T9 construct: whole, on cells
As to the kind of experiment: flow cytometry, primary NK cells.

The target of assay [10] is T10, anchored ILT2 D2 domain protein (human).
T10 construct: on CHO cells; the entry includes leader remnant, V5 tag and CD24 GPI anchor signal
Briefly: flow cytometry, CHO cells with anchored ILT2 domain proteins.

Assay [11] addresses T11, anchored ILT2 D2-D3 domain protein (human, UniProt Q8NHL6 122-321).
T11 construct: on CHO cells; the entry includes leader remnant, V5 tag and CD24 GPI anchor signal
The description is as above.

Assay [12] deals with T12, anchored ILT2 D3-D4 domain protein (human, UniProt Q8NHL6 223-650).
T12 construct: on CHO cells; the entry includes leader remnant, V5 tag, and the ILT2 transmembrane and cytoplasmic parts
Described as above.

Assay [13] has as its target T13, anchored ILT2 D2-D3-D4 domain protein (human, UniProt Q8NHL6 122-650).
T13 construct: on CHO cells; the entry includes leader remnant, V5 tag, and the ILT2 transmembrane and cytoplasmic parts
Described as above.

Assay [14] deals with T14, ILT-2_6xHis recombinant protein (human, UniProt Q8NHL6 24-458).
T14 construct: monomers purified by SEC; also called recombinant 6xHIS tagged ILT2; recombinant human ILT2 proteins
Briefly: SPR, antibody captured on Protein-A, soluble ILT2 analyte; two state fit. Here is the method: Measurements were performed on a Biacore T200 apparatus (Biacore GE Healthcare) at 25° C. In all Biacore experiments HBS-EP+(Biacore GE Healthcare) and NaOH 10 mM served as running buffer and regeneration buffer respectively. Sensorgrams were analyzed with Biacore T100 Evaluation software. Protein-A was purchased from (GE Healthcare). Human ILT2 recombinant proteins were cloned, produced and purified at Innate Pharma. Protein-A proteins were immobilized covalently to carboxyl groups in the dextran layer on a Sensor Chip CM5. The chip surface was activated with EDC/NHS (N-ethyl-N′-(3-dimethylaminopropyl) carbodiimidehydrochloride and N-hydroxysuccinimide (Biacore GE Healthcare)). Protein-A was diluted to 10 μg/ml in coupling buffer (10 mM acetate, pH 5.6) and injected until the appropriate immobilization level was reached (i.e. 600 RU). Deactivation of the remaining activated groups was performed using 100 mM ethanolamine pH 8 (Biacore GE Healthcare). […] For blank subtraction, cycles were performed again replacing ILT2 proteins with running buffer. The monovalent affinity analysis was conducted following a regular Capture-Kinetic protocol as recommended by the manufacturer (Biacore GE Healthcare kinetic wizard). […]

Assay [15] has as its target T15, ILT2 mutant 1 (human, UniProt Q8NHL6 24-650).
T15 construct: transfected in HEK293T cells; also called M1
As to the kind of experiment: flow cytometry titration on HEK293T cells transfected with ILT2 mutant 1.

Assay [16] concerns the target T16, ILT2 mutant 2 (human, UniProt Q8NHL6 24-650).
T16 construct: transfected in HEK293T cells; also called M2
As to the kind of experiment: flow cytometry titration on HEK293T cells transfected with ILT2 mutant 2.

The target of assay [17] is T8, human ILT2 (LILRB1) expressed at the …. Briefly: flow cytometry titration on HEK293T cells transfected with wild-type ILT2.
In assay [18] the target is T17, anchored ILT2 D4 domain protein (human, UniProt Q8NHL6 322-650).
T17 construct: on CHO cells; the entry includes leader remnant, V5 tag, and the ILT2 transmembrane and cytoplasmic parts
Briefly: flow cytometry on CHO cells expressing the anchored ILT2 D4 domain protein (SEQ ID NO: 49); stacked histograms, axis without numbers.

For assay [19], the target named is T18, anchored ILT2 D3 domain protein (human).
T18 construct: on CHO cells; the entry includes leader remnant, V5 tag and CD24 GPI anchor signal
Briefly: flow cytometry on CHO cells expressing the anchored ILT2 D3 domain protein (SEQ ID NO: 48); stacked histograms, axis without numbers, no control histogram.

For assay [20], the target named is T9, human ILT2 on primary NK cells. Briefly: cell-based or functional assay.
Assay [21] concerns the target T19, anchored ILT2 D1-D2 domain protein (human, UniProt Q8NHL6 24-222).
T19 construct: on CHO cells; the entry includes leader remnant, V5 tag and CD24 GPI anchor signal
As to the kind of experiment: flow cytometry, CHO cells with anchored ILT2 domain proteins.

For assay [22], the target named is T20, anchored ILT2 D1-D2-D3 domain protein (human, UniProt Q8NHL6 24-321).
T20 construct: on CHO cells; the entry includes leader remnant, V5 tag and CD24 GPI anchor signal
The assay is described as above.

For assay [23], the target named is T14, ILT-2_6xHis recombinant protein. As to the kind of experiment: SPR, antibody captured on Protein-A, soluble ILT2 analyte. The procedure: Measurements were performed on a Biacore T200 apparatus (Biacore GE Healthcare) at 25° C. In all Biacore experiments HBS-EP+(Biacore GE Healthcare) and NaOH 10 mM served as running buffer and regeneration buffer respectively. Sensorgrams were analyzed with Biacore T100 Evaluation software. Protein-A was purchased from (GE Healthcare). Human ILT2 recombinant proteins were cloned, produced and purified at Innate Pharma. Protein-A proteins were immobilized covalently to carboxyl groups in the dextran layer on a Sensor Chip CM5. The chip surface was activated with EDC/NHS (N-ethyl-N′-(3-dimethylaminopropyl) carbodiimidehydrochloride and N-hydroxysuccinimide (Biacore GE Healthcare)). Protein-A was diluted to 10 μg/ml in coupling buffer (10 mM acetate, pH 5.6) and injected until the appropriate immobilization level was reached (i.e. 600 RU). Deactivation of the remaining activated groups was performed using 100 mM ethanolamine pH 8 (Biacore GE Healthcare). […] For blank subtraction, cycles were performed again replacing ILT2 proteins with running buffer. The monovalent affinity analysis was conducted following a regular Capture-Kinetic protocol as recommended by the manufacturer (Biacore GE Healthcare kinetic wizard). Seven serial dilutions of human ILT2 proteins, ranging from 1.95 nM to 250 nM were sequentially injected over the captured antibodies and allowed to dissociate for 10 min before regeneration. The entire sensorgram sets were fitted using the 1:1 kinetic binding model or two state reaction model, as a function of the profile of the curves.

Assay [24] deals with T8, human ILT2 (LILRB1) expressed at the …. As to the kind of experiment: flow cytometry titration on HEK293T cells transfected with wild-type ILT2. This is another data set of the same source.
The target of assay [25] is T21, ILT2 mutant 4-1 (human, UniProt Q8NHL6 24-650).
T21 construct: transfected in HEK293T cells
As to the kind of experiment: flow cytometry titration on HEK293T cells transfected with ILT2 mutant 4-1.

Assay [26] concerns the target T22, ILT2 mutant 4-2 (human, UniProt Q8NHL6 24-650).
T22 construct: transfected in HEK293T cells
Briefly: flow cytometry titration on HEK293T cells transfected with ILT2 mutant 4-2.

In assay [27] the target is T23, Mutant D4-4.
T23 construct: also called ILT2 mutant 4-4; mutant 4-4
Briefly: flow cytometry titration on HEK293T cells transfected with ILT2 mutant 4-4.

In assay [28] the target is T24, ILT2 mutant 4-5 (human, UniProt Q8NHL6 24-650).
T24 construct: transfected in HEK293T cells
Briefly: flow cytometry titration on HEK293T cells transfected with ILT2 mutant 4-5.

Assay [29] addresses T25, Mutant D4-1B.
T25 construct: read as S304F; also called ILT2 mutant 4-1b; mutant 4-1b
As to the kind of experiment: flow cytometry titration on HEK293T cells transfected with ILT2 mutant 4-1b.

The target in assay [30] is T26, anchored ILT2 D1 domain protein (human).
T26 construct: on CHO cells; the entry includes leader remnant, V5 tag and CD24 GPI anchor signal
Briefly: flow cytometry on CHO cells expressing the anchored ILT2 D1 domain protein (SEQ ID NO: 46); stacked histograms, axis without numbers.

Read-outs that look alike come from different tables or passages of the source.

T4 sequence (O75022 other isoform, or with tags, fused parts or gaps): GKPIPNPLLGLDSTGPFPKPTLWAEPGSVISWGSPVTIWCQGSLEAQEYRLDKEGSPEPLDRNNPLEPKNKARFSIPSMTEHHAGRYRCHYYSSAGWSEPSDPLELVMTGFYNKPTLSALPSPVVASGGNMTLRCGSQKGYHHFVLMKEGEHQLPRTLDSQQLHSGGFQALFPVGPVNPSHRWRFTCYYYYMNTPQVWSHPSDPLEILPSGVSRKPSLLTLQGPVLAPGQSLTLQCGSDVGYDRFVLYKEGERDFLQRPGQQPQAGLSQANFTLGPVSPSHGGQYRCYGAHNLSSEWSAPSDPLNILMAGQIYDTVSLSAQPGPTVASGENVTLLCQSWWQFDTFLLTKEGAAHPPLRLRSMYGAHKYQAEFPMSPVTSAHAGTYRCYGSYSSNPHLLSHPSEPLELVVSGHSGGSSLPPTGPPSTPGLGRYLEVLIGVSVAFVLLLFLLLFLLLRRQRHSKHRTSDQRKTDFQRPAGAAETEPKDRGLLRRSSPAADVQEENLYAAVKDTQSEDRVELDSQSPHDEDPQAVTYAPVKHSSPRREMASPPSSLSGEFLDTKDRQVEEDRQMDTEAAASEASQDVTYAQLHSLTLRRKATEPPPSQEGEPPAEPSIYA
T1 sequence (Q8N149 other isoform, or with tags, fused parts or gaps): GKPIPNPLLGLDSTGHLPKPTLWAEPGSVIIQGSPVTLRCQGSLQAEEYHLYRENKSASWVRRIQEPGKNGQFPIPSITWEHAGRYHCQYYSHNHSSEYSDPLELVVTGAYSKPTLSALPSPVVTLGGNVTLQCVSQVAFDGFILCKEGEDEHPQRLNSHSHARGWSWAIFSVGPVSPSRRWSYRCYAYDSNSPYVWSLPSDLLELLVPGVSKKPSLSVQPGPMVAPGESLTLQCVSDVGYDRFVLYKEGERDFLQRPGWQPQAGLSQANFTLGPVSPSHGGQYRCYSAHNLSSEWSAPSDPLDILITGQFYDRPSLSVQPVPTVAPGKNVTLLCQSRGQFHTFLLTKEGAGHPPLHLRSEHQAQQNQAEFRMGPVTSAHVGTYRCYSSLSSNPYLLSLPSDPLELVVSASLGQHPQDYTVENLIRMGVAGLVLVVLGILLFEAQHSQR
T3 sequence (Q8N423 other isoform, or with tags, fused parts or gaps): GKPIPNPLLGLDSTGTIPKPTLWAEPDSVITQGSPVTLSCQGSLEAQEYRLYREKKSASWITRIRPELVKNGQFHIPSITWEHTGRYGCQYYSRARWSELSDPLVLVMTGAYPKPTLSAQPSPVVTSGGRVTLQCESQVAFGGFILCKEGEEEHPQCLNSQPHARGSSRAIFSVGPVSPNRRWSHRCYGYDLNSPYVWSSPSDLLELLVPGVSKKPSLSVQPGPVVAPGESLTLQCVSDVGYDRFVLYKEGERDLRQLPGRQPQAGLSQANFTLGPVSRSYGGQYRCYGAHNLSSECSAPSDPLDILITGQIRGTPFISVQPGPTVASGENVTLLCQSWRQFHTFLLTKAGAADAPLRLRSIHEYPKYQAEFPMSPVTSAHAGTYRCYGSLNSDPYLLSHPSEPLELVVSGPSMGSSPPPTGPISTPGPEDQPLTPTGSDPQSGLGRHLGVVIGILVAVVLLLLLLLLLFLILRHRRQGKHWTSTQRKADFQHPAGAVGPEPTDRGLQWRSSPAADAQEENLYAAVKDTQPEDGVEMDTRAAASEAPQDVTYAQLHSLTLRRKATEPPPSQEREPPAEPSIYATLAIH
T5 sequence (Q8N6C8 other isoform, or with tags, fused parts or gaps): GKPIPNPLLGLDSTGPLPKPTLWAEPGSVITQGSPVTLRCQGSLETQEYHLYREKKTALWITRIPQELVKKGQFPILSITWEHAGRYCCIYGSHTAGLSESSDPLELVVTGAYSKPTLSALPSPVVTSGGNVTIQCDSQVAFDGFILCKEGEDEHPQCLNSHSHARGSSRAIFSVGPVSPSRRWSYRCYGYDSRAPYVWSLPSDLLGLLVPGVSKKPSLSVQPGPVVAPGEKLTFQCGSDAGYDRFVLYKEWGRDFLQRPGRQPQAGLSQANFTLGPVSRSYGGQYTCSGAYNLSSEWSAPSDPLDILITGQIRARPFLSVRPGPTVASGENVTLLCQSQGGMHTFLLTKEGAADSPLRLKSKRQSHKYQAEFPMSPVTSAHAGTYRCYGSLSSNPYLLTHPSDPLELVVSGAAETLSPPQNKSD
T11 sequence (Q8NHL6 other isoform, or with tags, fused parts or gaps limits assumed): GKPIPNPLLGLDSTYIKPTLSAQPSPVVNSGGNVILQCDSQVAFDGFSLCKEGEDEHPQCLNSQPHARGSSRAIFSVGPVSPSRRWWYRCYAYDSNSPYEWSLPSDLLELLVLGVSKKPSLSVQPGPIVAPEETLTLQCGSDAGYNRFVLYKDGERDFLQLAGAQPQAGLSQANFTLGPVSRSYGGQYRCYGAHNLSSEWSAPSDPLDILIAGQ
T9 sequence (Q8NHL6 24-650): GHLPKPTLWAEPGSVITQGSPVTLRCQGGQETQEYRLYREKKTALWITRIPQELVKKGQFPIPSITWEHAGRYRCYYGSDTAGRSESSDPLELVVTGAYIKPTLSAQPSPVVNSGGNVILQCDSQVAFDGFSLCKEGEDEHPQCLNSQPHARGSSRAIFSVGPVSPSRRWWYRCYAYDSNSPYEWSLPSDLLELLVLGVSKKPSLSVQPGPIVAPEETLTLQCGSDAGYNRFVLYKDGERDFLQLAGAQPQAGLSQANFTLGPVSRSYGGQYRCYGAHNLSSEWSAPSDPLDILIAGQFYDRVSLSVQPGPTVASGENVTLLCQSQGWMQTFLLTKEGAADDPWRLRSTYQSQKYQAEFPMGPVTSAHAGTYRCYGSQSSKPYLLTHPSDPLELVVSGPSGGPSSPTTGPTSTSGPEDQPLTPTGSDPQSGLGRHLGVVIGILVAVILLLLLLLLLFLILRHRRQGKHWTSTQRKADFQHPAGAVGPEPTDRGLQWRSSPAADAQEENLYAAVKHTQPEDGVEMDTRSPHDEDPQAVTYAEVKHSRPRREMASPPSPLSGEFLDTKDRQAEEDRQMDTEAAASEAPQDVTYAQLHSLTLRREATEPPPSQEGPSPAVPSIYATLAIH
T8 sequence (Q8NHL6 24-650): as above
T2 sequence (Q8NHJ6 other isoform, or with tags, fused parts or gaps): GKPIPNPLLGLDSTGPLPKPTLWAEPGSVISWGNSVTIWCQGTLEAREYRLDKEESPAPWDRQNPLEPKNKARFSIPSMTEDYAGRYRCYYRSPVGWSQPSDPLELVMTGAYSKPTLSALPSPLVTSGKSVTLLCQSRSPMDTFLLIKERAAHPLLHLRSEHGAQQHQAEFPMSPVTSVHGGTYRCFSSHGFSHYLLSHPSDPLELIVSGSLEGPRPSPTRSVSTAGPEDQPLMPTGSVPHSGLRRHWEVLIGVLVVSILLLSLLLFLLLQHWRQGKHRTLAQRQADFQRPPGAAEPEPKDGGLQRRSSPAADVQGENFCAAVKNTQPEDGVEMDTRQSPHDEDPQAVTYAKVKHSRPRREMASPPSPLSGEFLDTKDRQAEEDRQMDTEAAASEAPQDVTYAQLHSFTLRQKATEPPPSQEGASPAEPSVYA
T14 sequence (Q8NHL6 other isoform, or with tags, fused parts or gaps limits assumed): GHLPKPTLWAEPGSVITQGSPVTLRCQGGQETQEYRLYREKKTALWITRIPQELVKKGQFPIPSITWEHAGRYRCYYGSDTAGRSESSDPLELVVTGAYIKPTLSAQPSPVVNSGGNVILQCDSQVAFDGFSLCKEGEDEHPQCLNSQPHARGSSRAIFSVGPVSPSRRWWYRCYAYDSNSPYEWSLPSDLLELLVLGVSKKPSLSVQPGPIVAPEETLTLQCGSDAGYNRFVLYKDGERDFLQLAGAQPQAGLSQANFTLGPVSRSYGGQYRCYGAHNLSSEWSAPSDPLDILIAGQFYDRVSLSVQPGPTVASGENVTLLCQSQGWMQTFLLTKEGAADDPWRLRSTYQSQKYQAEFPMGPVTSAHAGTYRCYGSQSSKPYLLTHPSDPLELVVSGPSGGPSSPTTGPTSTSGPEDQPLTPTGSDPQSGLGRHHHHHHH
T18 sequence (chain, as listed by the source limits assumed): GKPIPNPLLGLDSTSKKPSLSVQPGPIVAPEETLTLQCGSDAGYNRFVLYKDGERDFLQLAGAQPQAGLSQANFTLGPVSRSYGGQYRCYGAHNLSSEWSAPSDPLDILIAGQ
T10 sequence (chain, as listed by the source limits assumed): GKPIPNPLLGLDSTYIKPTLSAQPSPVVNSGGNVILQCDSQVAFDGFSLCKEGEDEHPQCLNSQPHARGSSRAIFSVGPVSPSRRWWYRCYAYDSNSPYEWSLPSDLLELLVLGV
T19 sequence (Q8NHL6 other isoform, or with tags, fused parts or gaps limits assumed): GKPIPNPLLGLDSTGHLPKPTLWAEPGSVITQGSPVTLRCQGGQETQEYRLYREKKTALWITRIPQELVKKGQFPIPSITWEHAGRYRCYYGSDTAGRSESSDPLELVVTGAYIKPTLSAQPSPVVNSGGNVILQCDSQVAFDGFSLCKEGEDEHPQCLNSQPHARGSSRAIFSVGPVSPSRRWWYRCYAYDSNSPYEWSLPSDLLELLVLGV

B1: 3H5 (antibody, human IgG1, V domains shown)
VH: QVQLKESGPGLVAPSQSLSITCTVSGFSLTSYGVSWVRQPPGKGLEWLGVIWGDGSTNYHSALISRLSISKDNSKSQVFLKLNSLQTDDTATYYCAKPRWDDYAMDYWGQGTSVTVSS
VL: DIQMTQTTSSLSASLGDRVTISCRASQDISNYLNWYQQKPDGTVKLLIYYTSRLHSGVPSRFSGSGSGTDYSLTISNLEQEDIATYFCQQGNTLWTFGGGTKLEIK
As to B1, the binding result in assay [1], in assay [2], in [3], in assay [4], in assay [5] and in assay [6] was “no binding” each time. The binding result is listed as “no binding” in assay [7]; “no binding” in [10]; “no binding” in [11]; “no binding” in assay [12]; “no binding” in assay [13]; “binds” in assay [15]. The binding result was “no binding (tested: about 20 µg/ml)” in assay [16], “no binding” in [18] and “no binding” in assay [19]. The values for the EC50 in [8] and in assay [9] were 0.35 µg/mL and 0.48 µg/mL, respectively. Besides, the Kd in assay [14] stood at 4.4 nM. In addition, in assay [17], the “EC50 (read off the curve)” value is approximately 0.9 µg/mL.

B2: 18E1 (antibody, human IgG1, V domains shown)
VH: QVQLQQSGAELVKPGASVRLSCKASGYTFTAHTIHWVKQRSGQGLEWIGWLYPGSGSIKYNEKFKDKATLTADKSSSTVYMELSRLTSEDSAVYFCARHTNWDFDYWGQGTTLTVSS
VL: NIVLTQSPASLAVSLGQRATISCKASQSVDYGGASYMNWYQQKPGQPPKLLIYAASNLESGIPARFSGSGSGTDLTLNIHPVEEEDAAMYYCQQSNEEPWTFGGGTKLEIK
As to B2, in [20], the “CD137 expression on ILT2-positive primary NK cells” value is 2 fold. The “CD137 expression on NK cells of urothelial cancer patients with HLA-A2-expressing B cells” value in [20] is more than 2 fold. Further, the binding result in [1], in assay [2], in assay [3], in assay [4], in assay [5] and in [6] was “no binding” throughout. Also, the binding result is listed as “no binding” in assay [7]; “no binding” in assay [10]; “no binding” in assay [21]; “no binding” in assay [11]; “no binding” in assay [22]; “no binding (tested: about 20 µg/ml)” in [25]. The binding result in assay [26] is reported as “no binding (tested: about 20 µg/ml)”; in [27] it was “binds”; in [28], “binds”; in [29] it was “binds”; in assay [30], “no binding”; in assay [19], “no binding”. Further, the figures for the EC50 in assay [8] and in [9] were 0.12 µg/mL and 0.11 µg/mL, respectively. Also, the Kd in assay [23] was found to be 0.2 nM. Besides, in assay [23], the koff is 0.00011 s⁻¹. Besides, the “EC50 (read off the curve)” value in assay [24] is approximately 0.3 µg/mL.

B3: 27H5 (antibody, human IgG1, V domains shown)
VH: QVQLKESGPGLVAPSQSLSITCTVSGFSLTSYGVSWVRQPPGKGLEWLGVIWGDGNTNYHSALISRLSISKDNSKSQVFLKLNSLQTDDTATYYCARTNWDGWFAYWGQGTLVTVSA
VL: DIVMTQSHKFMSTSVGDRVSITCKASQDVGTAVAWYQQKPGQSPKLLIYWASTRHTGVPDRFTGSGSGTDFTLTISNVQSEDLADYFCQQYRSYPLGTFGGGTKLEIK
For the molecule B3, the binding result in [1], in [2], in [3], in assay [4], in assay [5] and in [6] was “no binding” throughout. For the same molecule, the binding result in assay [7] was “no binding”; in assay [10] it was “no binding”; in assay [11] it was “no binding”; in [12], “no binding”; in assay [13], “no binding”; in [15], “binds”. In addition, the binding result in assay [16] was “no binding (tested: about 20 µg/ml)”; in assay [18], “no binding”; in assay [19], “no binding”. This molecule returned an EC50 in [8] of 0.52 µg/mL. Besides, the Kd in [14] came to 13.9 nM.
